According to paper PMC11322666, “UPF3B modulates endoplasmic reticulum stress through interaction with inositol-requiring enzyme-1α” (Cell Death & Disease, 2024):

Tests used:
IRE1α^S724A = biological target: T1, IRE1α^S724A (human, UniProt O75460 19-977, S724A); test: co-IP; lysates of transfected HEK293T or U2OS cells (24 h) in NETN buffer (20 mM Tris-HCl pH 8.0, 100 mM NaCl, 1 mM EDTA, 0.5% NP-40), IP with anti-Flag (M2) magnetic beads or the indicated antibodies, western blot; Fig. 3G two-way; settings: partners not purified
T1 construct: IRE1α, human, point mutant; source: HEK293T and U2OS, transfected, in lysate
T1 sequence (O75460 19-977 S724A): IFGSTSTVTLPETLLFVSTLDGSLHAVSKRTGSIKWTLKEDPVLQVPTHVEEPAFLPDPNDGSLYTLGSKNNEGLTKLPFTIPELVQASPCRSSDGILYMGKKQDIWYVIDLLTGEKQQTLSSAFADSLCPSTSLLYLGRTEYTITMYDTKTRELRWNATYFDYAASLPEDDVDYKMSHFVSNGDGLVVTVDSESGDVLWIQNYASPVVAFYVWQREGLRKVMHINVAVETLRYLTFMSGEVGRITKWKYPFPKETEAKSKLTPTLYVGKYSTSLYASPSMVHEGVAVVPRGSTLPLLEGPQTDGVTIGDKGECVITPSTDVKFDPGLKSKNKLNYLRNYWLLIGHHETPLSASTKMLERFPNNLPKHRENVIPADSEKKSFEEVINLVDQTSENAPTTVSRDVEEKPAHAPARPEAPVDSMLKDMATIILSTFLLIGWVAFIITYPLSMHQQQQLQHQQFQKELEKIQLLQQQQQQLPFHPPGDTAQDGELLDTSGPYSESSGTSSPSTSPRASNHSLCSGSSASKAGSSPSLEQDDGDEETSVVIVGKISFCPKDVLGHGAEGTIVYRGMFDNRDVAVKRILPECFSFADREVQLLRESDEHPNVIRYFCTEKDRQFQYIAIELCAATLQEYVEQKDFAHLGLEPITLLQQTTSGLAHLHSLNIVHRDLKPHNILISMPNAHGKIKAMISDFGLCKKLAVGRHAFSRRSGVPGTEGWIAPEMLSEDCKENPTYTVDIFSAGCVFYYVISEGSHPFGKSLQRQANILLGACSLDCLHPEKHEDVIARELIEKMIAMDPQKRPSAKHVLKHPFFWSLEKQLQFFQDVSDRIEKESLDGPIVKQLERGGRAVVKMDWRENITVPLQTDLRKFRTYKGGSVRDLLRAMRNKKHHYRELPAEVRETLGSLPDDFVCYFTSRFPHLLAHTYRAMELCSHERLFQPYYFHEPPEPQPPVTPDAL

[1] = biological target: T2, inositol-requiring enzyme-1α (IRE1α), endogenous (human (endogenous in HEK293T and U2OS), UniProt O75460 19-977); test: co-IP; endogenous proteins, lysates of HEK293T and U2OS cells, IP with the indicated antibodies (anti-IRE1α), IgG as negative control; also with RNase A pre-treatment of lysates, in shUPF1 and shUPF2 cells, after STF-083010 or Kira6 (10 or 50 μM, 6 h), BiP overexpression, siBiP, UPF3B overexpression; settings: partners not purified
T2 construct: inositol-requiring enzyme-1α (IRE1α), endogenous in HEK293T and U2OS cells; source: endogenous, HEK293T and U2OS lysates
T2 sequence (O75460 19-977): as the sequence (O75460 19-977 S724A) above, with A706S counted along it

fold change of the co-precipitate against IRE1α^WT (IRE1α^S724A): 3.2 fold
fold change of the co-precipitate in Kira6-treated against control cells [1]: 3.9 fold
B1: UPF3B, endogenous (natural protein, human (endogenous in HEK293T and U2OS), UniProt Q9BZI7 1-483, looked up)
chain: MKEEKEHRPKEKRVTLLTPAGATGSGGGTSGDSSKGEDKQDRNKEKKEALSKVVIRRLPPTLTKEQLQEHLQPMPEHDYFEFFSNDTSLYPHMYARAYINFKNQEDIILFRDRFDGYVFLDNKGQEYPAIVEFAPFQKAAKKKTKKRDTKVGTIDDDPEYRKFLESYATDNEKMTSTPETLLEEIEAKNRELIAKKTTPLLSFLKNKQRMREEKREERRRREIERKRQREEERRKWKEEEKRKRKDIEKLKKIDRIPERDKLKDEPKIKVHRFLLQAVNQKNLLKKPEKGDEKELDKREKAKKLDKENLSDERASGQSCTLPKRSDSELKDEKPKRPEDESGRDYREREREYERDQERILRERERLKRQEEERRRQKERYEKEKTFKRKEEEMKKEKDTLRDKGKKAESTESIGSSEKTEKKEEVVKRDRIRNKDRPAMQLYQPGARSRNRLCPPDDSTKSGDSAAERKQESGISHRKEGGEE
notes: UPF3B, endogenous in HEK293T and U2OS cells; also called up-frameshift 3B; source: endogenous, HEK293T and U2OS lysates
